Assay results published in PMC5098442.

Assays:
[1] = target: recombinant soluble TACE ECD (human) (UniProt P78536); experiment: SPR
[2] = target: soluble TACE M-domain (wild type) (Homo sapiens) (UniProt P78536); experiment: SPR

## MEDI3622 (antibody)
[1]
  Kd: 2 nM
[2]
  Kd: 2.3 nM
